B1: VDR (parent)
chain: VTLELSQLSMLPHLADLVSYSIQK

Variants of: B1
Assay: protein stability index of a GFP-peptide fusion (GPS, HEK-293T) (PSI 1-6); higher = more stable
Conditions: c terminus: a fixed tail appended
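Further: lentivirally expressed fusions sorted by FACS into six bins by GFP to DsRed ratio, PSI derived from sequencing read proportions per bin multiplied by bin number.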

Row | Variant | protein stability index
1 | VTLELSQLSCLPHLADLVSYSIQK | 3.52
2 | VTLELSQLSDLPHLADLVSYSIQK | 1.71
3 | VTLELSQLSELPHLADLVSYSIQK | 1.87
4 | VTLELSQLSFLPHLADLVSYSIQK | 1.99
5 | VTLELSQLSGLPHLADLVSYSIQK | 2.09
6 | VTLELSQLSHLPHLADLVSYSIQK | 2.76
7 | VTLELSQLSILPHLADLVSYSIQK | 2.35
8 | VTLELSQLSKLPHLADLVSYSIQK | 1.69
9 | VTLELSQLSLLPHLADLVSYSIQK | 2.62
10 | VTLELSQLSNLPHLADLVSYSIQK | 2.14
11 | VTLELSQLSPLPHLADLVSYSIQK | 2.64
12 | VTLELSQLSQLPHLADLVSYSIQK | 2.65
13 | VTLELSQLSRLPHLADLVSYSIQK | 3.32
14 | VTLELSQLSSLPHLADLVSYSIQK | 1.96
15 | VTLELSQLSTLPHLADLVSYSIQK | 2.87
16 | VTLELSQLSWLPHLADLVSYSIQK | 3.71
17 | VTLELSQLSYLPHLADLVSYSIQK | 2.33
18 | VTLELSQLSMAPHLADLVSYSIQK | 1.62
19 | VTLELSQLSMCPHLADLVSYSIQK | 2.65
20 | VTLELSQLSMDPHLADLVSYSIQK | 1.23
21 | VTLELSQLSMEPHLADLVSYSIQK | 1.52
22 | VTLELSQLSMFPHLADLVSYSIQK | 2.5
23 | VTLELSQLSMGPHLADLVSYSIQK | 1.55
24 | VTLELSQLSMHPHLADLVSYSIQK | 3.18

Row | Variant | protein stability index
25 | VTLELSQLSMIPHLADLVSYSIQK | 3.11
26 | VTLELSQLSMKPHLADLVSYSIQK | 3.55
27 | VTLELSQLSMMPHLADLVSYSIQK | 2.38
28 | VTLELSQLSMNPHLADLVSYSIQK | 1.71
29 | VTLELSQLSMPPHLADLVSYSIQK | 3.08
30 | VTLELSQLSMQPHLADLVSYSIQK | 2.42
31 | VTLELSQLSMRPHLADLVSYSIQK | 1.94
32 | VTLELSQLSMSPHLADLVSYSIQK | 2.19
33 | VTLELSQLSMTPHLADLVSYSIQK | 2.73
34 | VTLELSQLSMVPHLADLVSYSIQK | 2.06
35 | VTLELSQLSMWPHLADLVSYSIQK | 2.6
36 | VTLELSQLSMYPHLADLVSYSIQK | 3.22
37 | VTLELSQLSMLAHLADLVSYSIQK | 2.4
38 | VTLELSQLSMLCHLADLVSYSIQK | 3.89
39 | VTLELSQLSMLDHLADLVSYSIQK | 3.28
40 | VTLELSQLSMLFHLADLVSYSIQK | 1.44
41 | VTLELSQLSMLGHLADLVSYSIQK | 2.02
42 | VTLELSQLSMLIHLADLVSYSIQK | 3.14
43 | VTLELSQLSMLKHLADLVSYSIQK | 2.72
44 | VTLELSQLSMLLHLADLVSYSIQK | 3.04
45 | VTLELSQLSMLMHLADLVSYSIQK | 2.51
46 | VTLELSQLSMLNHLADLVSYSIQK | 2.22
47 | VTLELSQLSMLQHLADLVSYSIQK | 3.63
48 | VTLELSQLSMLRHLADLVSYSIQK | 3.79

Row | Variant | protein stability index
49 | VTLELSQLSMLSHLADLVSYSIQK | 2.38
50 | VTLELSQLSMLTHLADLVSYSIQK | 3.29
51 | VTLELSQLSMLVHLADLVSYSIQK | 2.61
52 | VTLELSQLSMLWHLADLVSYSIQK | 4.36
53 | VTLELSQLSMLYHLADLVSYSIQK | 3.69
54 | VTLELSQLSMLPALADLVSYSIQK | 2.64
55 | VTLELSQLSMLPDLADLVSYSIQK | 2.87
56 | VTLELSQLSMLPELADLVSYSIQK | 3.51
57 | VTLELSQLSMLPFLADLVSYSIQK | 2.48
58 | VTLELSQLSMLPGLADLVSYSIQK | 2.52
59 | VTLELSQLSMLPILADLVSYSIQK | 3.46
60 | VTLELSQLSMLPKLADLVSYSIQK | 2.92
61 | VTLELSQLSMLPMLADLVSYSIQK | 4.11
62 | VTLELSQLSMLPNLADLVSYSIQK | 2.13
63 | VTLELSQLSMLPPLADLVSYSIQK | 2.69
64 | VTLELSQLSMLPQLADLVSYSIQK | 1.8
65 | VTLELSQLSMLPRLADLVSYSIQK | 2.16
66 | VTLELSQLSMLPSLADLVSYSIQK | 2.57
67 | VTLELSQLSMLPTLADLVSYSIQK | 2.23
68 | VTLELSQLSMLPVLADLVSYSIQK | 1.98
69 | VTLELSQLSMLPWLADLVSYSIQK | 1.99
70 | VTLELSQLSMLPYLADLVSYSIQK | 2.58
71 | VTLELSQLSMLPHAADLVSYSIQK | 2.18
72 | VTLELSQLSMLPHCADLVSYSIQK | 2.09

Row | Variant | protein stability index
73 | VTLELSQLSMLPHDADLVSYSIQK | 2.49
74 | VTLELSQLSMLPHEADLVSYSIQK | 2.88
75 | VTLELSQLSMLPHFADLVSYSIQK | 2.69
76 | VTLELSQLSMLPHGADLVSYSIQK | 1.71
77 | VTLELSQLSMLPHHADLVSYSIQK | 2.6
78 | VTLELSQLSMLPHIADLVSYSIQK | 3.33
79 | VTLELSQLSMLPHKADLVSYSIQK | 2.31
80 | VTLELSQLSMLPHMADLVSYSIQK | 3.71
81 | VTLELSQLSMLPHNADLVSYSIQK | 1.61
82 | VTLELSQLSMLPHPADLVSYSIQK | 1.85
83 | VTLELSQLSMLPHQADLVSYSIQK | 2.22
84 | VTLELSQLSMLPHRADLVSYSIQK | 1.86
85 | VTLELSQLSMLPHSADLVSYSIQK | 1.66
86 | VTLELSQLSMLPHTADLVSYSIQK | 2.12
87 | VTLELSQLSMLPHVADLVSYSIQK | 3.03
88 | VTLELSQLSMLPHWADLVSYSIQK | 2.95
89 | VTLELSQLSMLPHYADLVSYSIQK | 3.47
90 | VTLELSQLSMLPHLDDLVSYSIQK | 3.12
91 | VTLELSQLSMLPHLEDLVSYSIQK | 1.85
92 | VTLELSQLSMLPHLFDLVSYSIQK | 2.81
93 | VTLELSQLSMLPHLGDLVSYSIQK | 2.59
94 | VTLELSQLSMLPHLHDLVSYSIQK | 4.28

— the supplement of paper PMC10567573
